# B1: LV-MKK3-His-WT (His-labeled wild-type MKK3) in HT-22 cells [not stated] / RAGE (receptor for advanced glycation end products), endogenous in HT-22 cells [mouse (endogenous in HT-22)] (parent complex)
# chain 1: MESPAASPPASLPQTKGKSKRKKDLRISCVSKPPVSNPTPPRNLDSRTFITIGDRNFEVEADDLVTISELGRGAYGVVEKVRHAQSGTIMAVKRIRATVNTQEQKRLLMDLDINMRTVDCFYTVTFYGALFREGDVWICMELMDTSLDKFYRKVLEKNMKIPEDILGEIAVSIVRALEHLHSKLSVIHRDVKPSNVLINKEGHVKMCDFGISGYLVDSVAKTMDAGCKPYMAPERINPELNQKGYNVKSDVWSLGITMIEMAILRFPYESWGTPFQQLKQVVEEPSPQLPADQFSPEFVDFTSQCLRKNPAERMSYLELMEHPFFTLHKTKKTDIAAFVKEILGEDS
# chain 2: GQNITARIGEPLVLSCKGAPKKPPQQLEWKLNTGRTEAWKVLSPQGGPWDSVARILPNGSLLLPATGIVDEGTFRCRATNRRGKEVKSNYRVRVYQIPGKPEIVDPASELTASVPNKVGTCVSEGSYPAGTLSWHLDGKLLIPDGKETLVKEETRRHPETGLFTLRSELTVIPTQGGTHPTFSCSFSLGLPRRRPLNTAPIQLRVREPGPPEGIQLLVEPEGGIVAPGGTVTLTCAISAQPPPQVHWIKDGAPLPLAPSPVLLLPEVGHEDEGTYSCVATHPSHGPQESPPVSIRVTETGDEGPAEGSVGESGLGTLALALGILGGLGVVALLVGAILWRKRQPRREERKAPESQEDEEERAELNQSEEAEMPENGAGGP
# Variants of: B1
# Assay: co-IP (IP: RAGE, IB: MKK3-His) followed by western blotting, optical density; hippocampus of MKK3-knockdown db/db mice; n = 4 in each group; parent: 3.1; read off a plot
row,Variant,response
1,chain 1 K329A,~1.4 fold change relative to the db/db + MKK3-shRNA group

# Variants of: B1
# Assay: co-IP (IP: MKK3-His, IB: RAGE) followed by western blotting, optical density; hippocampus of MKK3-knockdown db/db mice; n = 4 in each group; parent: 1.7; read off a plot
row,Variant,response
1,chain 1 K329A,~1.1 fold change relative to the db/db + MKK3-shRNA group

# Variants of: B1
# Assay: co-IP (IP: MKK3-His, IB: RAGE) followed by western blotting, optical density; MKK3-knockdown HT-22 cells, high-glucose stimulation 24 hours; n = 4 in each group; parent: 4; read off a plot
row,Variant,response
1,chain 1 K329A,~1.4 fold change relative to the HG + MKK3-shRNA group

# Variants of: B1
# Assay: co-IP (IP: RAGE, IB: MKK3-His) followed by western blotting, optical density; MKK3-knockdown HT-22 cells, high-glucose stimulation 24 hours; n = 4 in each group; parent: 3.4; read off a plot
row,Variant,response
1,chain 1 K329A,~1.1 fold change relative to the HG + MKK3-shRNA group

# From publication PMC11745445 (2024)
